{"source": "patent US20090233319", "target": "T1, recombinant ICAD protein, O00273", "T1 chain": "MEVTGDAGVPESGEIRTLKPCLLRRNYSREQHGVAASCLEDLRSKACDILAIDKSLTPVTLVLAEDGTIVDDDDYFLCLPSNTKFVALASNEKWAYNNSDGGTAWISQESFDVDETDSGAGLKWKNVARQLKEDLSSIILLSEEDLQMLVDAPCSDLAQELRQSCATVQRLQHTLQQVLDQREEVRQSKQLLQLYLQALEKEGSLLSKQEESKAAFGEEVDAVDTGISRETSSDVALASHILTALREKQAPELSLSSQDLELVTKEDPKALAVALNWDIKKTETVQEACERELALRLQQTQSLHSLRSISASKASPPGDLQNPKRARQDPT", "data": [{"protein": "purified caspase-14 from human cornified cells (heterodimer of large subunit 17 KDa and small subunit 11 KDa) (protein) chain 1: SLEEEKYDMSGARLALILCVTKAREGSEEDLDALEHMFRQLRFESTMKRDPTAEQFQEELEKFQQAIDSREDPVSCAFVVLMAHGREGFLKGEDGEMVKLENLFEALNNKNCQALRAKPKVYIIQACRGEQRDPGETVGGD chain 2: KDSPQTIPTYTDALHVYSTVEGYIAYRHDQKGSCFIQTLVDVFTKRKGHILELLTEVTRRMAEAELVQEGKARKTNPEIQSTLRKRLYLQ", "values": [{"measurement": "ICAD decomposition by caspase-14 in the presence of a kosmotropic salt (Western blot with anti-ICAD IgG)", "value": "intact ICAD protein was reduced and the two major decomposition products were increased, thus indicating that purified caspase-14 has a limited decomposing effect on ICAD"}, {"measurement": "ICAD hydrolysis by caspase-14 in ordinary caspase assay buffer (Western blot with anti-ICAD IgG)", "value": "showed absolutely no hydrolytic activity of the purified caspase-14 for ICAD"}]}]}
